{"source": "IntAct's records for PubMed 20126263", "parents": {"B1": {"name": "TP53-binding protein 1 (Mus musculus), P70399-1 (parent)", "chain": "MPGEQMDPTGSQLDSDFSQQDTPCLIIEDSQPESQVLEEDAGSHFSVLSRHLPNLQMHKENPVLDIVSNPEQSAVEQGDSNSSFNEHLKEKKASDPVESSHLGTSGSISQVIERLPQPNRTSSALAVTVEAASLPEEEKEEEELEEEKEGVGANAPGADSLAAEDSASSQLGFGVLELSQSQDVEEHTVPYDVNQEHLQLVTTNSGSSPLSDVDASTAIKCEEQPTEDIAMIEQPSKDIPVTVQPGKGIHVVEEQNLPLVRSEDRPSSPQVSVAAVETKEQVPARELLEEGPQVQPSSEPEVSSTQEDLFDQSSKTASDGCSTPSREEGGCSPVSTPATTLQLLQLSGQKPLVQESLSTNSSDLVAPSPDAFRSTPFIVPSSPTEQGGRKDEPMDMSVIPVGGEPFQKLHDDEAMETEKPLLPSQPAVSPQASTPVSRSTPVFTPGSLPIPSQPEFSHDIFIPSPSLEEPSDDVKKGGGLHSSSLTVECSKTSESEPKNFTDDLGLSMTGDSCKLMLSTSEYSQSSKMESLGSPRTEEDRENTQIDDTEPLSPVSNSKLPADSENVLVTPSQDDQVEMSQNVDKAKEDETEDRGDCKGREDAVAEDVCIDLTCDSGSQAVPSPATRSEALSSVLDQEEAMDTKEHHPEEGFSGSEVEEVPETPCGSHREEPKEEPMESIPLHLSLTETQSEALCLQKEAPKEECPEAMEVETSVISIDSPQKLQVLDQELEHKDPDTWEEATSEDSSVVIVDVKEPSPRADVSCEPLEEVEKCSDSQSWEGVAPEEEPCAENRLDTPEEKRIECDGDSKAETTEKDAVTEDSPQPPLPSVRDEPVRPDQETQQPQVQEKESPVTVDAEVADDKQLGPEGACQQLEKAPACASQSFCESSSETPFHFTLPKEGDIIPPLTGATPPLIGHLKLEPKRHSTPIGISNYPESTIATSDVTSESMVEINDPLLGNEKGDSESAPEMDGKLSLKMKLVSPETEASEESLQFSLEKPTTAERKNGSTAIAEPVASLQKPVPVFGCIYEAQQEKEAQSEAPPSAPDRANLLHFPSAQEEDKERPDVTPKLRQSEQPVKPVGPVMDDAAPEDSASPVSQQRASQEQRASQEPFSPAEDVMETDLLEGLAANQDRPSKMLMDRPTQSNIGIQTVDHSLCAPETVSAATQTVKSVCEQGTSTAEQNSGKQDATVQTERGSGEKPASAPVDDTESLHSQGEEEFEMPQPPHGHVLHRHMRTIREVRTLVTRVITDVYYVDGTEVERKVTEETEEPIVECQECETEVSPSQTGGSSGDLGDISSFSSKASSSHHTSSGTSLSAIHSSGSSGRGAGPLKGKASGTEAADFALPSSRGGPGKLSPRKGISQTGAPVCEEDGDAGLGIRQGGKAPVTPRGRGRRGRPPSRTTGTRETVVSGPLGVEDISPSMSPDDKSFTRIMPRVPDSTKRTDASSSTLRRSDSPEIPFQAATGSSDGLDSSSSGNSFVGLRVVAKWSSNGYFYSGKITRDVGAGKYKLLFDDGYECDVLGKDILLCDPIPLDTEVTALSEDEYFSAGVVKGHRKESGELYYSIEKEGQRKWYKRMAVILSLEQGNRLREQYGLGPYEAVTPLTKAADISLDNLVEGKRKRRSNISSPVTPTAASSSSTTPTRKATESPRASTGVPSGKRKLPTSEEERSPAKRGRKSATVKPGTVGAAEFVSPCETGDNIGEPSVLEEPRGPLPLNKTLFLGYAFLLTMATTSDKLASRSKLLDGPTGSSEEEEEFLEIPPFNKQYTECQLRAGAGYILEDFNEAQCNTAYQCLLIADQHCRTRKYFLCLASGIPCVSHVWVHDSCHANQLQNYRNYLLPAGYSLEEQRILDWQPRENPFQNLKVLLVSDQQQNFLELWSEILMTGGAASVKQHHSSAHNKDIALGVFDVVVTDPSCPASVLKCAEALQLPVVSQEWVIQCLIVGERIGFKQHPKYKHDYVSH"}}}
{"variants_of": "B1", "conditions": "with plk1_human PLK1, P53350"}
{"variant": "S382A", "effect of a mutation on the interaction": "disrupting interaction"}
